2 molecules from patent US7273727B2, “Fusion proteins for prodrug activation” (Behrinwerke Aktiengesellschaft, priority 1992, dated 2007) can be followed below.

Data set [1] can be described thus: Analysis of the monosaccharide components in the carbohydrate content (HPAE-PAD after hydrolysis). Format: physicochemical. How it is done: Neuraminic acid was determined by the method of Hermentin and Seidat (1991) GBF Monographs Volume 15, pp. 185-188 (after hydrolysis for 30 min in the presence of 0.1 N sulfuric acid at 80° C. and subsequent neutralization with 0.4 N sodium hydroxide solution) by high-pH anion exchange chomatography with pulsed amerometric detection (HPAE-PAD).
The monosaccaride components were determined (after hydrolysis for 4 h in the presence of 2 N trifluoracetic acid at 100° C. and evaporation to dryness in a SpeedVac) likewise by HPAE-PAD in a […] of the method described by Hardy et al. (1988) Analytical Biochemistry 170, pp. 54-62.

The next data set concerns CEA. The data set is described as follows: Specificity enzyme activity test, plates coated with CEA. In kind it is biochemical. An excerpt:
(§1) The ability of the sFv-huβ-Gluc fusion protein to bind specifically to the CEA epitope defined by 431/26 and simultaneously to exert the enzymatic activity of human β-glucuronidase was shown in a specificity enzyme activity test (EP-A2-0 501 215). The test determines the liberation of 4-methylumbelliferone from 4-methylumbelliferyl β-glucuronide by the β-glucuronidase portion of the fusion protein after the fusion protein has been bound via the sFv portion to an antigen. The measured fluorescence values are reported as relative fluorescence units (FU).

The subject of data set [2] is PEM (polymorphic epithelial mucin). The data set is described as follows: Specificity enzyme activity test, control plates coated with PEM. Format: biochemical.
From the text: as §1

Data set [3] is described as follows: Injection of prodrug after injection of fusion protein, side effects. In kind it is in vivo. The settings on record: prodrug injected 3 days after injection of the fusion protein; data not shown. From the text: This rapid internalization mechanism, which is mainly mediated by galactose and mannose, is closely involved in the advantageous phannacokinetics of the fusion protein according to the invention. These advantageous pharmacokinetics of the fusion protein to which galactose and, in particular, mannose are attached makes it possible for a hydrophilic prodrug which undergoes extracellular distribution to be administered i.v. at a relatively early time without eliciting non-specific prodrug activation. In this case an elimination step as described by Sharma et al. (Brit. J. Cancer, 61, 659, 1990) is unnecessary.

Setting [4] is: fusion protein from Saccharomyces cerevisiae.
Where [5] appears, read: fusion protein expressed by BHK cells.
[6] abbreviates: fusion protein from BHK cells, after hydrolysis.

B1: sFv-huβGluc: sFv 431/26 human β-glucuronidase fusion protein expressed in yeast (Example 9), highly mannosylated (protein)
chain: QVQLQESGPGLVRPSQTLSLTCTVSGFTISSGYSWHWVRQPPGRGLEWIGYIQYSGITNYNPSLKSRVTMLVDTSKNQFSLRLSSVTAADTAVYYCAREDYDYHWYFDVWGQGTTVTVSSGGGGSGGGGSGGGGSDIQLTQSPSSLSASVGDRVTITCSTSSSVSYMHWYQQKPGKAPKLLIYSTSNLASGVPSRFSGSGSGTDFTFTISSLQPEDIATYYCHQWSSYPTFGQGTKLEIKELKTPLGDTTHTCPRCPAAAAVQGGMLYPQESPSRECKELDGLWSFRADFSDNRRRGFEEQWYRRPLWESGPTVDMPVPSSFNDISQDWRLRHFVGWVWYEREVILPERWTQDLRTRVVLRIGSAHSYAIVWVNGVDTLEHEGGYLPFEADISNLVQVGPLPSRLRITIAINNTLTPTTLPPGTIQYLTDTSKYPKGYFVQNTYFDFFNYAGLQRSVLLYTTPTTYIDDITVTTSVEQDSGLVNYQISVKGSNLFKLEVRLLDAENKVVANGTGTQGQLKVPGVSLWWPYLMHERPAYLYSLEVQLTAQTSLGPVSDFYTLPVGIRTVAVTKSQFLINGKPFYFHGVNKHEDADIRGKGFDWPLLVKDFNLLRWLGANAFRTSHYPYAEEVMQMCDRYGIVVIDECPGVGLALPQFFNNVSLHHHMQVMEEVVRRDKNHPAVVMWSVANEPASHLESAGYYLKMVIAHTKSLDPSRPVTFVSNSNYAADKGAPYVDVICLNSYYSWYHDYGHLELIQLQLATQFENWYKKYQKPIIQSEYGAETIAGFHQDPPLMFTEEYQKSLLEQYHLGLDQKRRKYVVGELIWNFADFMTEQSPTRVLGNKKGIFTRQRQPKSAAFLLRERYWKIANETRYPHSVAKSQCLENSPFT
For B1, in data set [1] (setting [4]), the Glucosamine came to 6 mol/mol, the Glucose is given as 12 mol/mol and the Mannose turned out to be 150 mol/mol.

B2: sFv-huβ-Gluc: humanized sFv fragment against CEA (from MAb BW 431/26) linked via hinge to human β-glucuronidase; SEQ ID NO:2 (protein)
chain: MGWSCIILFLVATATGVHSQVQLQESGPGLVRPSQTLSLTCTVSGFTISSGYSWHWVRQPPGRGLEWIGYIQYSGITNYNPSLKSRVTMLVDTSKNQFSLRLSSVTAADTAVYYCAREDYDYHWYFDVWGQGTTVTVSSGGGGSGGGGSGGGGSDIQLTQSPSSLSASVGDRVTITCSTSSSVSYMHWYQQKPGKAPKLLIYSTSNLASGVPSRFSGSGSGTDFTFTISSLQPEDIATYYCHQWSSYPTFGQGTKLEIKELKTPLGDTTHTCPRCPAAAAVQGGMLYPQESPSRECKELDGLWSFRADFSDNRRRGFEEQWYRRPLWESGPTVDMPVPSSFNDISQDWRLRHFVGWVWYEREVILPERWTQDLRTRVVLRIGSAHSYAIVWVNGVDTLEHEGGYLPFEADISNLVQVGPLPSRLRITIAINNTLTPTTLPPGTIQYLTDTSKYPKGYFVQNTYFDFFNYAGLQRSVLLYTTPTTYIDDITVTTSVEQDSGLVNYQISVKGSNLFKLEVRLLDAENKVVANGTGTQGQLKVPGVSLWWPYLMHERPAYLYSLEVQLTAQTSLGPVSDFYTLPVGIRTVAVTKSQFLINGKPFYFHGVNKHEDADIRGKGFDWPLLVKDFNLLRWLGANAFRTSHYPYAEEVMQMCDRYGIVVIDECPGVGLALPQFFNNVSLHHHMQVMEEVVRRDKNHPAVVMWSVANEPASHLESAGYYLKMVIAHTKSLDPSRPVTFVSNSNYAADKGAPYVDVICLNSYYSWYHDYGHLELIQLQLATQFENWYKKYQKPIIQSEYGAETIAGFHQDPPLMFTEEYQKSLLEQYHLGLDQKRRKYVVGELIWNFADFMTEQSPTRVLGNKKGIFTRQRQPKSAAFLLRERYWKIANETRYPHSVAKSQCLENSPFT
On to B2, for which, in the data set on CEA (setting [5]), the antigen specificity entry is “specific for CEA” and the β-glucuronidase activity result was “full β-glucuronidase activity”. The “liberation of methylumbelliferone from 4-methylumbelliferyl β-glucuronide” value with CEA (plates coated with CEA) is recorded as “significant liberation of methyl-umbelliferone”. Moreover, the “liberation of methylumbelliferone from 4-methylumbelliferyl β-glucuronide” value in data set [2] is “does not liberate any methylumbelliferone”. Also, in data set [1] (setting [6]), the “Fucose, molar ratio” value is recorded as 4 mol of carbohydrate/mol of sFv-huβ-Gluc; the “Galactosamine, molar ratio” value is 2 mol of carbohydrate/mol of sFv-huβ-Gluc; the “Galactose, molar ratio” value is 8 mol of carbohydrate/mol of sFv-huβ-Gluc; the “Glucose, molar ratio” value was 1 mol of carbohydrate/mol of sFv-huβ-Gluc. In data set [1] (setting [6]), the “Mannose, molar ratio” value is listed as 43 mol of carbohydrate/mol of sFv-huβ-Gluc; the “N-Acetyl glucosamine, molar ratio” value is 30 mol of carbohydrate/mol of sFv-huβ-Gluc; the “N-Acetyl-neuraminic acid, molar ratio” value is listed as 4 mol of carbohydrate/mol of sFv-huβ-Gluc. For the same molecule, the “side effects after injection of a suitable prodrug” value in data set [3] is recorded as “without producing significant side effects”.
